Measured values as given in patent US20250270343A1 (Alector, published 2025).
Where a chain is given by its changes, count along the chain named.

T1: full-length untagged human GPNMB expressed on cells (human, UniProt Q14956 23-572)
T1 sequence: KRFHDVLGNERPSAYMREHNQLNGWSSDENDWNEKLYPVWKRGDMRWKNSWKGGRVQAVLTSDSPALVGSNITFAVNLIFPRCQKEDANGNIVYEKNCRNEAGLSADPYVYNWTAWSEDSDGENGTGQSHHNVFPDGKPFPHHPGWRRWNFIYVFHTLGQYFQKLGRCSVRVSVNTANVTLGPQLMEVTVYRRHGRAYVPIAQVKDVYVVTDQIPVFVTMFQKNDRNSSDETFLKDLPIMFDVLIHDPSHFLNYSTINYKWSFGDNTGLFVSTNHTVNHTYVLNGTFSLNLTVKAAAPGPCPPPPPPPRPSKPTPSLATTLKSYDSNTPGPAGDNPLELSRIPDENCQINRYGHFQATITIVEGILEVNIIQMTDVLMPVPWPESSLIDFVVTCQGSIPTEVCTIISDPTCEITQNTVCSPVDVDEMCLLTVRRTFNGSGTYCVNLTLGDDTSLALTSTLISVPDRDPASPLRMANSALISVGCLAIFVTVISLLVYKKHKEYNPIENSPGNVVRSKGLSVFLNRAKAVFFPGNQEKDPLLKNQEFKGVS

B1: anti-GPNMB antibody GPN-24 (antibody, human IgG1, V domains shown)
VH: QVQLQQPGAELVKPGASVKMSCKASGYTFTSYWITWVKQRPGQGLEWIGDIHPGSGRSNYNEKFKNKATLNVDTSSSTVYMQLSSLTSEDSAVYYCARDYLFAYWGQGTLVTVSA
VL: DIQMTQSPSSLSASLGERVSLTCRASQEISGYLSWLQQKPDGTIKRLIYSTSTLDSGVPKRFSGSRSGSDYSLTISSLESEDFADYYCLQYTSSPPTFGGGTKLEIK
notes: chimeric
B2: anti-GPNMB antibody GPN-07 (antibody, human IgG1, V domains shown)
VH: QVQLQQSGAEQVKPGASVKLSCKASGYTFTSYYMYWVKQRPGQGLEWIGEINPSNGGTYFNEKFKSKATLTVDKSSSTAYMHLSSLTSEDSAVYYCTRGGTYYAYWGQGTLVTVSA
VL: B1 VL with I29M, Y32H, S50A, T51A, T92A, S94Y, P96Y
notes: chimeric
B3: anti-GPNMB antibody GPN-30 (antibody, human IgG1, V domains shown)
VH: EVQLQQSGPELVNPGASVRISCKASGYSFTGYYMNWVKQSPEKSLEWIGEINPNTGFTTYNQNFKAKATLTVDKSSSTAYIQLKSLTSEDSAVYYCTRPSPSFDYWGQGTTLTVSS
VL: B1 VL with V19G, Y32H, S50A, T51A, T92A, S94Y, P96Y
notes: chimeric
B4: anti-GPNMB antibody GPN-26 (antibody, human IgG1, V domains shown)
VH: EVQLQQSGPELVKPGASVKISCKASGYSFTGYYMNWVRQSPEKSLEWIGEINPSTGITTYNQKFKAKATLTVDKSSNTAFMQLKSLTSEDSAVYYCARPASWFDYWGQGTLVTVSA
VL: B1 VL with Y32H, S50A, T51A, T92A, S94Y, P96Y
notes: chimeric
B5: anti-GPNMB antibody GPN-22 (antibody, human IgG1, V domains shown)
VH: QVQLQQPGAERVKPGASVKMSCKASGYTFTSYWITWVKQRPGQGLEWIGDIFPGSGSTNYHEKFKSKATLTVDTSSSTAYMQLSSLTSEDSAVYYCSRGYFGSSFSDYWGQGTSVTVSS
VL: B1 VL with A25T, T92A, G100S
notes: chimeric
B6: anti-GPNMB antibody GPN-09 (antibody, human IgG1, V domains shown)
VH: B2 VH with Q11L, M34I, S66N, H82Q, T101N
VL: B1 VL with Y32H, S34G, S50A, T51A, S52L, T92A, S94Y, P96Y
notes: chimeric
B7: anti-GPNMB antibody GPN-25 (antibody, human IgG1, V domains shown)
VH: B4 VH with R38K, S54G, T55S, N77S, F80Y, M81L, D104A
VL: B1 VL with L21F, T22I, Y32H, S50A, T51A, T92A, S94Y, P96Y
notes: chimeric
B8: anti-GPNMB antibody GPN-31 (antibody, human IgG1, V domains shown)
VH: B4 VH with R38K, S44N, S54N, I57G, N77T, F80Y, A97T
VL: B1 VL with Y32H, S50A, T51A, S65R, T92A, S94Y, P96Y, E105A
notes: chimeric
B9: anti-GPNMB antibody GPN-01 (antibody, human IgG1, V domains shown)
VH: QVQLQQSGAELAKPGASVKLSCKASGYNFTNYCIHWVKQRPGQGLEWIGYINPSTGYTEYNQKFKDKATLTADKSSTTAYMQLSSLTSEDSAVYYCARGRYDEFTYWGQGTLVTVSA
VL: DIVLTQSPASLAVSLGQRATISCRASKSVSTSTYSYMHWYQQKPGQPPKLLIYLASNLESGVPARFSGSGSGTDFTLNIHPVEEEDAATYYCQHSRELPPTFGGGTKLEIK
notes: chimeric
B10: anti-GPNMB antibody GPN-34 (antibody, human IgG1, V domains shown)
VH: EVKLVESGGGLVQPGRSLKLSCAASGFNFYDYWMGWVRQAPGKGLEWIGEINKDSRTINYTPFLKDRFTISRDNAQNTLYLQMSKLGSEDTAIYYCAREGRVPFDYWGQGVMVTVSS
VL: DIQMTQSPSSMSVSLGDTVTIPCRASQDVGSYVNWFQQKPGKSPRHMIYRATNLADGVPSRFSGSRSGADYSLTISSLESEDVADYHCQQYAEYPLTFGSGTKLEIK
notes: chimeric
B11: anti-GPNMB antibody GPN-03 (antibody, human IgG1, V domains shown)
VH: QVQLQQSGPELVKPGASVKLSCKASGYTFTNYYMYWVKQRPGQGLEWIGEINPRNGGTNFNEKFKSKATLTVDKSSSTAYMQLSSLTFEDSAVYYCTTGLAYWGQGTLVTVSA
VL: DVVMTQTPLSLPVSLGDQASISCRSSQSLVHSDGNTYLHWYLQKPGQSPKLLIYKVSTRFSGVPDRFSGSGSGTDFTLKISRVEAEDLGVYFCSQSTHVPWTFGGGTKLEIK
notes: chimeric
B12: anti-GPNMB antibody GPN-06 (antibody, human IgG1, V domains shown)
VH: B11 VH with P9A, P53T, F88S, L100F
VL: DIQMTQSPASLSASVGETVTITCRASENIYSYLVWYQQNQGKSPQLLVYNAKTLAEGVPSRFSGSGSGTQFSLKINSLQPEDFGTYYCQHHYGTPFTFGSGTKLEIK
notes: chimeric
B13: anti-GPNMB antibody GPN-08 (antibody, human IgG1, V domains shown)
VH: QVQLQQPGAELVKPGASVKLSCRASGYTFTSYWLHWVKQRPGQGLEWIGEINPSDGRTNYIEKVKTKATLTVDKSSSTAYMQLSSLTSEDSAVYYCARSGGNYAWFAYWGQGTLVTVSA
VL: DIVMTQSHKFMSTSVGDRVSITCKASQDVSPSVAWYQQRPGQSPKLLIYSASYRYTGVPDRFTGSGSGTDFTFTISSVQAEDLAVYYCQQHYSIPLTFGAGTKLELK
notes: chimeric
B14: anti-GPNMB antibody GPN-11 (antibody, human IgG1, V domains shown)
VH: QVQLQQPGAELVKPGASVKLSCKASGYTFTSYWMHWVKQRPGQGLEWIGEINSSNGRTNYNEKFKTKATLTVDRSSSTAYMQLSSLTSEDSAVYYCARLGYYSGSPYPYYAMDCWGQGTSVTVSS
VL: DIQMTQSPASLSVSVGETVTITCRASENIYSNLAWYQQKQGKSPQLLVYAATNLADGVPSRFSGSGSGTQYSLKINSLQSEDFGSYYCQHFWNTPPTFGGGTKLEIK
notes: chimeric

Target: T1, full-length untagged human GPNMB …
Experiment: cell-based or functional assay

CD40 (FoB) | CD80 (FoB) | GCase (FoB) | PDL1 (FoB) | Binder
1.56 FoB | 1.2 FoB | 1.22 FoB | 1.48 FoB | B1
1.39 FoB | 1.29 FoB | 2.13 FoB | 1.67 FoB | B2
1.75 FoB | 1.34 FoB | 1.27 FoB | 1.64 FoB | B3
1.91 FoB | 1.4 FoB |  | 1.88 FoB | B4
1.7 FoB | 1.16 FoB | 1.21 FoB | 1.76 FoB | B5
1.49 FoB | 1.19 FoB | 1.26 FoB | 1.5 FoB | B6
1.68 FoB | 1.41 FoB | 1.24 FoB | 1.73 FoB | B7
1.9 FoB | 1.44 FoB | 1.22 FoB | 1.82 FoB | B8
1.74 FoB | 1.36 FoB | 1.05 FoB | 1.7 FoB | B9
1.52 FoB | 1.36 FoB | 1.76 FoB | 1.56 FoB | B10
1.45 FoB | 1.4 FoB | 1.47 FoB | 1.32 FoB | B11
1.44 FoB | 1.38 FoB | 1.58 FoB | 1.61 FoB | B12
1.35 FoB | 1.29 FoB | 1.18 FoB | 1.59 FoB | B13
1.7 FoB | 1.25 FoB | 1.24 FoB | 1.64 FoB | B14

Target: T1, full-length untagged human GPNMB …
Experiment: FACS, FS293-huGPNMB+ cells
Method: Recombinant anti-GPNMB antibodies of the present disclosure were examined for their ability to bind human and/or mouse GPNMB expressed on Freestyle293-huGPNMB+ or B16F10 cells, respectively. B16F10 cells are a murine melanoma cell line from a C57BL/6J mouse that endogenously express high levels of mouse GPNMB. The antibodies were also tested for their ability to bind to a human macrophage cell line (U937 cells) engineered to express human GPNMB. Cells were harvested, plated at 100,000 cells/well in a 96-well round bottom plate, and incubated in 100 μl FACS buffer (PBS containing 2% FBS, 2 mM EDTA) containing anti-GPNMB monoclonal antibodies of the present disclosure for 30 minutes on ice. Cells were then washed and incubated in 100 ul FACS buffer containing 1 μg/ml APC-conjugated anti-human IgG secondary antibody for 30 minutes in ice. Cells were washed twice in cold FACS buffer and acquired on a BD FACS Canto. Data analysis and calculation of MFI values was performed with FlowJo (TreeStar) software version 10.0.7.
Importantly, several anti-GPNMB antibodies of the present disclosure also bound to the human macrophage cell line U937 cells engineered to express human GPNMB (U937/huGPNMB+) (FIG. 2C). In FIG. 2C, the first data point in each pair corresponds to U937/huGPNMB+ cells, and the second data point in each pair corresponds to U937/huGPNMB− cells. No anti-GPNMB antibodies bound to U937 cells deficient in human GPNMB expression (U937/huGPNMB−).

MFI fold over background | Binder
59.9 fold | B1
66.5 fold | B2
34.4 fold | B3
46.3 fold | B4
44.8 fold | B5
35.1 fold | B6
42.7 fold | B7
53.8 fold | B8
43.2 fold | B9
125 fold | B10
89.2 fold | B11
66.4 fold | B12
74.4 fold | B13
56.2 fold | B14

Target: T1, full-length untagged human GPNMB …
Experiment: FACS titration, FS293-huGPNMB+ cells
Method: Cell-based binding measurements were also performed to measure the apparent affinities of anti-GPNMB antibodies of the present disclosure to cell-surface expressed GPNMB. Serial dilutions of the monoclonal anti-GPNMB antibodies were added to 100,000 Freestyle293-huGPNMB+ or B16F10 cells and allowed to achieve binding equilibrium at 4° C. After addition of fluorescently labeled secondary antibody and brief washing steps, MFI values as a function of titrated antibody concentration was recorded via FACS analysis. Curves were fit using nonlinear regression analysis with Graphpad Prism 6 software.

EC50 | Binder
0.22 nM | B1
18.4 nM | B2
1.12 nM | B3
1.09 nM | B4
0.33 nM | B5
1.31 nM | B6
0.5 nM | B7
0.76 nM | B8
0.17 nM | B9
0.41 nM | B10
3.38 nM | B11
1.61 nM | B12
0.87 nM | B13
0.3 nM | B14
